Measurements published in the supplement of paper PMC12783771.
± gives the standard deviation of the averaged measurements.

B1: library; numbered along this chain (parent)
chain: MNIQIGELAKRTACPVVTIRFYEQEGLLPPPGRSRGNFRLYGEEHVERLQFIRHCRSLDMPLSDVRTLLSYRKRPDQDCGEVNMLLDEHIRQVESRIGALLELKHHLVELREACSGARPAQSCGILQGLSDCVCDTRGTTAHPSD

Columns and labels:
[1] = variants of: B1; assay: sfGFP reporter fluorescence (15 h) (µM FITC); higher = higher leak; details: library round: Round 0; ligand: none
In short: (§1)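 Values are endpoint sfGFP fluorescence given as µM FITC equivalents. Fluorescence was read at 485/528 nm on a Synergy Neo2, and FITC standard curves were prepared in 50 mM sodium borate pH 8.5. Reactions of 1 μL combined BL21 Star (DE3) PANOx-SP extract, pPbrR-sfGFP reporter, 30 μg/mL GamS and linear PbrR templates (PCR-made, Echo-normalized to 5 nM), with 1 µM lead chloride, 30 µM zinc acetate or no metal, for 15 hr at 30 °C.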

[2] = variants of: B1; assay: sfGFP reporter fluorescence (15 h) (µM FITC); higher = stronger transcriptional activation; details: library round: Round 0
In short: as §1

Variant	sfGFP reporter fluorescence [1]	sfGFP reporter fluorescence ([2]; ligand: 1 µM Pb)	sfGFP reporter fluorescence ([2]; ligand: 30 µM Zn)
L126N	0.05901 ± 0.00052	0.05882 ± 0.00026	0.05333 ± 0.00026
L126R	0.0619 ± 0.0015	0.05992 ± 0.00026	0.0572 ± 0.0021
L126Y	0.0596 ± 0.0018	0.05937 ± 0.00052	0.0561 ± 0.0021
L126A	0.0685 ± 0.001	0.0682 ± 0.0026	0.0691 ± 0.0039
L126M	0.0594 ± 0.0015	0.0596 ± 0.0018	0.22 ± 0.032
M60L P61N K104V L107C	0.535 ± 0.018	1.66 ± 1.4	3.35 ± 0.1
V46C	0.0531 ± 0.0026	0.0781 ± 0.0021	0.574 ± 0.01
V46I	0.0548 ± 0.006	0.0711 ± 0.0062	0.831 ± 0.17
V16W	0.0599 ± 0.0018	0.0623 ± 0.0021	0.064 ± 0.00078
V16I	0.05864 ± 0.00052	0.0768 ± 0.0018	0.981 ± 0.061
V16M	0.0647 ± 0.0029	0.099 ± 0.0052	0.9379 ± 0.0042
V16Y	0.0629 ± 0.00078	0.0678 ± 0.001	0.119 ± 0.0018
G128W	0.07165 ± 0.00026	0.248 ± 0.028	1.39 ± 0.098
G128S	0.0649 ± 0.0036	0.0902 ± 0.0083	1.3 ± 0.14
P61N D64K G128I	0.452 ± 0.022	1.46 ± 0.23	3.51 ± 0.073
P30G	0.05699 ± 0.00026	0.0665 ± 0.0023	0.436 ± 0.021
P30D	0.0658 ± 0.0029	0.08338 ± 0.00026	0.391 ± 0.088
P30L	0.0614 ± 0.00078	0.0894 ± 0.0031	0.901 ± 0.0029
P30N	0.0605 ± 0.0031	0.0753 ± 0.0049	0.628 ± 0.07
P30M	0.06322 ± 0.00026	0.09162 ± 0.00052	0.859 ± 0.079
P30A	0.0623 ± 0.001	0.0748 ± 0.001	0.681 ± 0.087
P30H	0.0618 ± 0.00078	0.0808 ± 0.0023	0.659 ± 0.038
R33N	0.0632 ± 0.00078	0.0817 ± 0.028	0.06084 ± 0.00052

Variant	sfGFP reporter fluorescence [1]	sfGFP reporter fluorescence ([2]; ligand: 1 µM Pb)	sfGFP reporter fluorescence ([2]; ligand: 30 µM Zn)
L68V	0.0603 ± 0.0018	0.0632 ± 0.0013	0.384 ± 0.035
L68A	0.0623 ± 0.001	0.0619 ± 0.0047	0.156 ± 0.0049
L68P	0.0632 ± 0.0029	0.0583 ± 0.0015	0.0652 ± 0.0026
L68N	0.0588 ± 0.0013	0.05992 ± 0.00026	0.0599 ± 0.0013
G36L	0.0588 ± 0.00078	0.0621 ± 0.00078	0.114 ± 0.011
G36D	0.0616	0.0623 ± 0.0021	0.0695 ± 0.0018
M60L G128M	0.939 ± 0.012	2.69 ± 0.78	4.69 ± 0.071
I125T	0.0585 ± 0.0023	0.0566 ± 0.0013	0.06414 ± 0.00052
I125M	0.05992 ± 0.00026	0.0579 ± 0.001	0.05571 ± 0.00052
I125C	0.0596 ± 0.00078	0.05901 ± 0.00052	0.0568 ± 0.0047
I125E	0.0597 ± 0.0026	0.0581 ± 0.00078	0.0557 ± 0.0031
D64M	2.97 ± 0.48	3.46 ± 0.68	4.15 ± 0.31
D64N	0.06652 ± 0.00026	0.137 ± 0.006	1.64 ± 0.084
D64E	0.0581 ± 0.0018	0.061 ± 0.0013	0.1552 ± 0.00078
D64R	0.064 ± 0.0039	0.112 ± 0.0049	1.4 ± 0.036
D64A	0.0874 ± 0.0065	0.158 ± 0.049	2.22 ± 0.24
D64T	0.217 ± 0.0054	0.331 ± 0.051	2.74 ± 0.3
D64F	0.267 ± 0.014	1.01 ± 0.054	3.86 ± 0.28
D64L	2.28 ± 0.17	3.29 ± 0.26	4.32 ± 0.14
P61N G128I	0.1886 ± 0.0018	0.682 ± 0.092	3.06 ± 0.22
L85D	0.0577 ± 0.0013	0.0563 ± 0.0013	0.0537 ± 0.0013
D64K L107C	3.83 ± 0.36	3.75 ± 0.15	4.11 ± 0.21
H54A	0.05626 ± 0.00026	0.0552 ± 0.0029	0.07074 ± 0.00052

Variant	sfGFP reporter fluorescence [1]	sfGFP reporter fluorescence ([2]; ligand: 1 µM Pb)	sfGFP reporter fluorescence ([2]; ligand: 30 µM Zn)
P75A	0.0618 ± 0.0023	0.0711 ± 0.01	0.519 ± 0.049
K104Q	0.0601 ± 0.0026	0.0832 ± 0.015	0.901 ± 0.022
K104I	0.0616 ± 0.0057	0.165 ± 0.044	1.22 ± 0.053
C55Q	0.0594 ± 0.001	0.0588 ± 0.0013	0.0585 ± 0.00078
C55A	0.0647 ± 0.0013	0.126 ± 0.013	1.28 ± 0.066
C55D	0.0608 ± 0.0021	0.061 ± 0.0018	0.0592 ± 0.00078
L62T	0.0607 ± 0.0034	0.0674 ± 0.0031	0.133 ± 0.0031
L62C	0.061 ± 0.0018	0.0651 ± 0.0013	0.0995 ± 0.00078
L62R	0.06377 ± 0.00052	0.0643 ± 0.0013	0.0704 ± 0.0047
M60L P61N D64K L107C	3.0399 ± 0.0023	4.3 ± 0.33	4.24 ± 0.28
M60L D64K G128I	2.06 ± 0.074	3.47 ± 0.32	4.32 ± 0.22
C79W	0.0583 ± 0.0021	0.0588 ± 0.0013	0.0548 ± 0.0034
L28I	0.0588 ± 0.00078	0.0841 ± 0.0013	0.908 ± 0.066
L28F	0.0603 ± 0.00078	0.0784 ± 0.0015	0.599 ± 0.018
L28N	0.06285 ± 0.00026	0.0592 ± 0.00078	0.0605 ± 0.0026
L28Y	0.0621 ± 0.00078	0.0627 ± 0.0015	0.12 ± 0.0052
L28D	0.06194 ± 0.00052	0.0632 ± 0.00078	0.06359 ± 0.00026
L28V	0.06175 ± 0.00026	0.0819 ± 0.0013	0.5124 ± 0.0026
E94A	0.0738 ± 0.0044	0.0867 ± 0.0065	0.333 ± 0.015
E94D	0.0579 ± 0.0052	0.0623	0.32 ± 0.013
K104V L107C G128M	0.701 ± 0.023	3.1 ± 0.15	4.118 ± 0.038
F21T	0.0601 ± 0.0015	0.06121 ± 0.00052	0.06066 ± 0.00026
F21Y	0.06102 ± 0.00026	0.0755 ± 0.0015	0.819 ± 0.015

Variant	sfGFP reporter fluorescence [1]	sfGFP reporter fluorescence ([2]; ligand: 1 µM Pb)	sfGFP reporter fluorescence ([2]; ligand: 30 µM Zn)
C123M	0.057 ± 0.0013	0.0577 ± 0.00078	0.0544 ± 0.0034
C123K	0.0592 ± 0.0039	0.0597 ± 0.001	0.0574 ± 0.0029
C123G	0.0535 ± 0.001	0.0552 ± 0.0013	0.0502 ± 0.0015
M1A	0.0618 ± 0.0029	0.0715 ± 0.0047	0.124 ± 0.0015
Y41G	0.0563 ± 0.00078	0.0564 ± 0.001	0.0579 ± 0.0026
Y41C	0.0618 ± 0.0018	0.0592 ± 0.00078	0.0654 ± 0.0018
Y41M	0.0629 ± 0.00078	0.0596 ± 0.0023	0.113 ± 0.0078
Y41K	0.06047 ± 0.00052	0.061 ± 0.0029	0.0621 ± 0.0018
L110W	0.057 ± 0.0018	0.0572 ± 0.0015	0.0537 ± 0.0023
L110K	0.05772 ± 0.00026	0.05864 ± 0.00052	0.0792 ± 0.0021
L110M	0.0568 ± 0.0015	0.05644 ± 0.00052	0.0574 ± 0.0023
L110Q	0.0555 ± 0.0013	0.057 ± 0.00078	0.05589 ± 0.00026
L107Q	0.0579 ± 0.0047	0.08521 ± 0.00078	0.764 ± 0.047
L107S	0.12 ± 0.0091	0.5454 ± 0.0042	2.27 ± 0.042
L107Y	0.0603 ± 0.0013	0.06762 ± 0.00026	0.209 ± 0.0091
L107W	0.0599 ± 0.0013	0.0638	0.118 ± 0.0013
I90D	0.0568 ± 0.0047	0.0561 ± 0.0015	0.085 ± 0.0057
I90E	0.0579 ± 0.0042	0.05791 ± 0.00052	0.0977 ± 0.0018
I90W	0.0585 ± 0.0023	0.0619 ± 0.001	0.272 ± 0.0062
I90P	0.0574 ± 0.0029	0.0616 ± 0.0015	0.151 ± 0.0047
